Measurements from patent publication US20200024330A1.

How the values were obtained:
Test in all cases: cell-based or functional assay
[1] = target: HIV-1 92BR020 envelope glycoprotein (Env) on pseudovirus (HIV-1)
[2] = target: HIV-1 92RW020 envelope glycoprotein (Env) on pseudovirus (HIV-1)
[3] = target: HIV-1 Env of isolate 6535.3 (HIV-1)
[4] = target: HIV-1 Env of isolate 92BR020 (HIV-1)
[5] = target: HIV-1 Env of isolate 92RW008 (clade A), on pseudovirus (HIV-1)
[6] = target: HIV-1 Env of isolate 92RW009 (clade A), on pseudovirus (HIV-1)
[7] = target: HIV-1 Env of isolate 92TH021 (pseudovirus) (HIV-1)
[8] = target: HIV-1 Env of isolate 92UG001 (subtype D), on pseudovirus (HIV-1)
[9] = target: HIV-1 Env of isolate 92UG005 (subtype D), on pseudovirus (HIV-1)
[10] = target: HIV-1 Env of isolate 92UG024 (subtype D), on pseudovirus (HIV-1)
[11] = target: HIV-1 Env of isolate 92UG031 (pseudovirus) (HIV-1)
[12] = target: HIV-1 Env of isolate 92UG037 (pseudovirus) (HIV-1)
[13] = target: HIV-1 Env of isolate 92UG046 (subtype D), on pseudovirus (HIV-1)
[14] = target: HIV-1 Env of isolate 92UG114 (subtype D), on pseudovirus (HIV-1)
[15] = target: HIV-1 Env of isolate 92WR020 (pseudovirus) (HIV-1)
[16] = target: HIV-1 Env of isolate 92WR021 (pseudovirus) (HIV-1)
[17] = target: HIV-1 Env of isolate 92WR024 (pseudovirus) (HIV-1)
[18] = target: HIV-1 Env of isolate 92WR026 (pseudovirus) (HIV-1)
[19] = target: HIV-1 Env of isolate 93TH305 (HIV-1)
[20] = target: HIV-1 Env of isolate 93UG077 (pseudovirus) (HIV-1)
[21] = target: HIV-1 Env of isolate 93WR029 (pseudovirus) (HIV-1)
[22] = target: HIV-1 Env of isolate 94 KE 105 (pseudovirus) (HIV-1)
[23] = target: HIV-1 Env of isolate 94UG103 (pseudovirus) (HIV-1)
[24] = target: HIV-1 Env of isolate 98CN006 (subtype CRF08 BC), on pseudovirus (HIV-1)
[25] = target: HIV-1 Env of isolate 98CN009 (subtype CRF07_BC), on pseudovirus (HIV-1)
[26] = target: HIV-1 Env of isolate APV_13 (HIV-1)
[27] = target: HIV-1 Env of isolate APV_17 (HIV-1)
[28] = target: HIV-1 Env of isolate APV_6 (HIV-1)
[29] = target: HIV-1 Env of isolate CAAN.A2 (HIV-1)
[30] = target: HIV-1 Env of isolate CMU02 (pseudovirus) (HIV-1)
[31] = target: HIV-1 Env of isolate JRFL (HIV-1)
[32] = target: HIV-1 Env of isolate MG RM-A-005 (pseudovirus) (HIV-1)
[33] = target: HIV-1 Env of isolate MG RM-A-006 (pseudovirus) (HIV-1)
[34] = target: HIV-1 Env of isolate MG RM-A-007 (pseudovirus) (HIV-1)
[35] = target: HIV-1 Env of isolate MG RM-A-008 (pseudovirus) (HIV-1)
[36] = target: HIV-1 Env of isolate MG RM-A-009 (pseudovirus) (HIV-1)
[37] = target: HIV-1 Env of isolate MG RM-A-010 (pseudovirus) (HIV-1)
[38] = target: HIV-1 Env of isolate MG RM-A-011 (pseudovirus) (HIV-1)
[39] = target: HIV-1 Env of isolate MG RM-A-012 (pseudovirus) (HIV-1)
[40] = target: HIV-1 Env of isolate MG RM-A-013 (pseudovirus) (HIV-1)
[41] = target: HIV-1 Env of isolate MG RM-A-014 (pseudovirus) (HIV-1)
[42] = target: HIV-1 Env of isolate MGRM-AE-001 (pseudovirus) (HIV-1)
[43] = target: HIV-1 Env of isolate MGRM-AE-002 (pseudovirus) (HIV-1)
[44] = target: HIV-1 Env of isolate MGRM-AE-003 (pseudovirus) (HIV-1)
[45] = target: HIV-1 Env of isolate MGRM-AE-004 (pseudovirus) (HIV-1)
[46] = target: HIV-1 Env of isolate MGRM-AE-005 (pseudovirus) (HIV-1)
[47] = target: HIV-1 Env of isolate MGRM-AE-006 (pseudovirus) (HIV-1)
[48] = target: HIV-1 Env of isolate MGRM-Chronic-B-001 (HIV-1)
[49] = target: HIV-1 Env of isolate MGRM-Chronic-B-002 (HIV-1)
[50] = target: HIV-1 Env of isolate MGRM-Chronic-B-003 (HIV-1)
[51] = target: HIV-1 Env of isolate MGRM-Chronic-B-004 (HIV-1)
[52] = target: HIV-1 Env of isolate MGRM-Chronic-B-008 (HIV-1)
[53] = target: HIV-1 Env of isolate MGRM-D-001 (subtype D), on pseudovirus (HIV-1)
[54] = target: HIV-1 Env of isolate MGRM-D-002 (subtype D), on pseudovirus (HIV-1)
[55] = target: HIV-1 Env of isolate MGRM-D-003 (subtype D), on pseudovirus (HIV-1)
[56] = target: HIV-1 Env of isolate MGRM-D-004 (subtype D), on pseudovirus (HIV-1)
[57] = target: HIV-1 Env of isolate MGRM-D-005 (subtype D), on pseudovirus (HIV-1)
[58] = target: HIV-1 Env of isolate MGRM-D-008 (subtype D), on pseudovirus (HIV-1)
[59] = target: HIV-1 Env of isolate VLGCA1 (pseudovirus) (HIV-1)

4980_N08 (PGT-143) (antibody), sequence (VH): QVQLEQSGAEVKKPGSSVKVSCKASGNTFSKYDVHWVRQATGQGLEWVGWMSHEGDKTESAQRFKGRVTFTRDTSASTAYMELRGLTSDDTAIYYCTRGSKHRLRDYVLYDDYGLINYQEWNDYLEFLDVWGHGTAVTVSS
4980_N08 (PGT-143) (antibody), sequence (VL): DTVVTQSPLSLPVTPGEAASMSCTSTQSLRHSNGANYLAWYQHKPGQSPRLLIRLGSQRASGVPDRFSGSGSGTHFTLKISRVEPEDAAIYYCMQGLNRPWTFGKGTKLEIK

Question: How did the IC50 (ug/ml), neutralizing activity [1] turn out when 4980_N08 (PGT-143) (antibody) was run?
Answer: > 10 µg/mL

Question: What about the IC50 (ug/ml), neutralizing activity [2] of the same substance?
Answer: > 10 µg/mL

Question: And the IC50 [3]?
Answer: > 50 µg/mL

Question: And the IC50 [4]?
Answer: 25.9 µg/mL

Question: What about the IC50, single-round pseudovirus neutralization [5] of the same substance?
Answer: 0.385 µg/mL

Question: What about the IC50, single-round pseudovirus neutralization [6] of the same substance?
Answer: 0.01 µg/mL

Question: And the IC50 (µg/mL), pseudovirus neutralization [7]?
Answer: 0.003 µg/mL

Question: What about the IC50, pseudovirus neutralization [8] of the same substance?
Answer: > 50 µg/mL

Question: What about the IC50, pseudovirus neutralization [9] of the same substance?
Answer: > 50 µg/mL

Question: What about the IC50, pseudovirus neutralization [10] of the same substance?
Answer: > 50 µg/mL

Question: And the IC50 (µg/mL), pseudovirus neutralization [11]?
Answer: 0.095 µg/mL

Question: What about the IC50 (µg/mL), pseudovirus neutralization [12] of the same substance?
Answer: 0.854 µg/mL

Question: What about the IC50, pseudovirus neutralization [13] of the same substance?
Answer: > 50 µg/mL

Question: What about the IC50, pseudovirus neutralization [14] of the same substance?
Answer: > 50 µg/mL

Question: What about the IC50 (µg/mL), pseudovirus neutralization [15] of the same substance?
Answer: > 50 µg/mL

Question: What about the IC50 (µg/mL), pseudovirus neutralization [16] of the same substance?
Answer: > 50 µg/mL

Question: What about the IC50 (µg/mL), pseudovirus neutralization [17] of the same substance?
Answer: 0.122 µg/mL

Question: What about the IC50 (µg/mL), pseudovirus neutralization [18] of the same substance?
Answer: 5.36 µg/mL

Question: What about the IC50 [19] of the same substance?
Answer: 17.3 µg/mL

Question: And the IC50 (µg/mL), pseudovirus neutralization [20]?
Answer: > 50 µg/mL

Question: And the IC50 (µg/mL), pseudovirus neutralization [21]?
Answer: 0.053 µg/mL

Question: What about the IC50 (µg/mL), pseudovirus neutralization [22] of the same substance?
Answer: 0.368 µg/mL

Question: And the IC50 (µg/mL), pseudovirus neutralization [23]?
Answer: > 50 µg/mL

Question: What about the IC50, pseudovirus neutralization [24] of the same substance?
Answer: > 50 µg/mL

Question: And the IC50, pseudovirus neutralization [25]?
Answer: 10.2 µg/mL

Question: And the IC50 [26]?
Answer: > 50 µg/mL

Question: What about the IC50 [27] of the same substance?
Answer: 1.11 µg/mL

Question: And the IC50 [28]?
Answer: 14 µg/mL

Question: And the IC50 [29]?
Answer: > 50 µg/mL

Question: What about the IC50 (µg/mL), pseudovirus neutralization [30] of the same substance?
Answer: > 50 µg/mL

Question: And the IC50 [31]?
Answer: > 50 µg/mL

Question: What about the IC50 (µg/mL), pseudovirus neutralization [32] of the same substance?
Answer: 7.48 µg/mL

Question: And the IC50 (µg/mL), pseudovirus neutralization [33]?
Answer: > 50 µg/mL

Question: What about the IC50 (µg/mL), pseudovirus neutralization [34] of the same substance?
Answer: > 50 µg/mL

Question: And the IC50 (µg/mL), pseudovirus neutralization [35]?
Answer: > 50 µg/mL

Question: What about the IC50 (µg/mL), pseudovirus neutralization [36] of the same substance?
Answer: 0.05 µg/mL

Question: And the IC50 (µg/mL), pseudovirus neutralization [37]?
Answer: 0.019 µg/mL

Question: And the IC50 (µg/mL), pseudovirus neutralization [38]?
Answer: > 50 µg/mL

Question: And the IC50 (µg/mL), pseudovirus neutralization [39]?
Answer: > 50 µg/mL

Question: And the IC50 (µg/mL), pseudovirus neutralization [40]?
Answer: 9.24 µg/mL

Question: What about the IC50 (µg/mL), pseudovirus neutralization [41] of the same substance?
Answer: 1.07 µg/mL

Question: What about the IC50 (µg/mL), pseudovirus neutralization [42] of the same substance?
Answer: > 50 µg/mL

Question: What about the IC50 (µg/mL), pseudovirus neutralization [43] of the same substance?
Answer: > 50 µg/mL

Question: And the IC50 (µg/mL), pseudovirus neutralization [44]?
Answer: > 50 µg/mL

Question: What about the IC50 (µg/mL), pseudovirus neutralization [45] of the same substance?
Answer: 0.002 µg/mL

Question: And the IC50 (µg/mL), pseudovirus neutralization [46]?
Answer: > 50 µg/mL

Question: And the IC50 (µg/mL), pseudovirus neutralization [47]?
Answer: > 50 µg/mL

Question: And the IC50 [48]?
Answer: > 50 µg/mL

Question: And the IC50 [49]?
Answer: > 50 µg/mL

Question: What about the IC50 [50] of the same substance?
Answer: 0.854 µg/mL

Question: And the IC50 [51]?
Answer: 0.395 µg/mL

Question: What about the IC50 [52] of the same substance?
Answer: > 50 µg/mL

Question: And the IC50, pseudovirus neutralization [53]?
Answer: > 50 µg/mL

Question: What about the IC50, pseudovirus neutralization [54] of the same substance?
Answer: > 50 µg/mL

Question: What about the IC50, pseudovirus neutralization [55] of the same substance?
Answer: > 50 µg/mL

Question: And the IC50, pseudovirus neutralization [56]?
Answer: > 50 µg/mL

Question: What about the IC50, pseudovirus neutralization [57] of the same substance?
Answer: 1.41 µg/mL

Question: What about the IC50, pseudovirus neutralization [58] of the same substance?
Answer: 0.153 µg/mL

Question: And the IC50 (µg/mL), pseudovirus neutralization [59]?
Answer: 17.4 µg/mL
